Data on four molecules can be found in paper PMC7908025 (ACS Central Science, 2021).

Data set [1] concerns the target porcine N-acyl-D-glucosamine 2-epimerase (AGE) (Sus scrofa, UniProt P17560). The data set is classed as biochemical. As to conditions: 35 °C, 48 h.
The next data set addresses PmST1 (Pasteurella multocida, UniProt Q15KI8). The format is biochemical.
Data set [2] concerns CC(=O)N[C@H]1[C@H]([C@H](F)[C@H](O)CO)O[C@@](O[C@H]2[C@@H](O)[C@@H](CO)O[C@@H](Oc3ccc4c(C)cc(=O)oc4c3)[C@@H]2O)(C(=O)O)C[C@@H]1O. The data set is described as follows: purified protein.
Data set [3] has as its system CC(=O)N[C@H]1[C@H]([C@H](O)[C@H](O)CO)O[C@](OP(=O)(O)OC[C@H]2O[C@@H](n3ccc(N)nc3=O)[C@H](O)[C@@H]2O)(C(=O)O)C[C@@H]1O. The data set can be described thus: purified protein.

Broadly, the kcat/Km is the second-order rate constant that governs catalysis at low substrate concentration.

porcine N-acyl-D-glucosamine 2-epimerase (AGE), sequence (P17560 whole entry): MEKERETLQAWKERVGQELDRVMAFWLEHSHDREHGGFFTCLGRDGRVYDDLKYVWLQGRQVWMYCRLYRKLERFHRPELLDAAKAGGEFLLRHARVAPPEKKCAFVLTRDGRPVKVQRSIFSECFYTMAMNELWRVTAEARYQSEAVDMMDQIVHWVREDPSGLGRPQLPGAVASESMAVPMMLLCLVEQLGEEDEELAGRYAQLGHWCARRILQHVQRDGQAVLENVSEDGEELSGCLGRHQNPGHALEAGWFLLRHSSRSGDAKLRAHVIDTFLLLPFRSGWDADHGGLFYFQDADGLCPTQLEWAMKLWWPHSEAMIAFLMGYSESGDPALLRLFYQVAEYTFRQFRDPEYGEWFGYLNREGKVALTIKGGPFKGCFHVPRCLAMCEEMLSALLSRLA

For `CC(=O)N[C@H]1C(O)O[C@H](CO)[C@H](F)[C@@H]1O` (stereo partly drawn) [compound 2, 4-deoxy-4-fluoro-GalNAc], the “one-pot epimerase/aldolase conversion, 19F NMR” value in data set [1] is recorded as “the epimerase was converting the GalNAc starting material”.

Consider `CC(=O)N[C@H]1[C@H]([C@H](O)[C@H](O)CO)O[C@](OP(=O)(O)OC[C@H]2O[C@@H](n3ccc(N)nc3=O)[C@H](O)[C@@H]2O)(C(=O)O)C[C@@H]1O` [compound 9, CMP-7OHSA], for which the Km on PmST1 came to 89 µM.

Take (Micromonospora viridifaciens): in data set [2], the Km is 1.2 (±0.15) mM and the kcat/Km amounted to 2250 ± 1000 M⁻¹ s⁻¹.

In the case of (Photobacterium sp. JT-ISH-224), in data set [3], the Km is 70 (±1) μM and the kcat/Km was found to be 656000 M⁻¹ s⁻¹.
